B1: His6-SUMO-tagged SH3 to PDZ domains of Shank2 (R520-D727), WT [not stated (human or rat cDNA cloned)] / synthetic peptide of the complete PDZ ligand of GKAP (last 15 amino acids of GKAP/SAPAP1) [not stated] (parent)
chain 1: RKLYSAVPGRLFVAVKPYQPQVDGEIPLHRGDRVKVLSIGEGGFWEGSARGHIGWFPAECVEEVQCKPRDSQAETRADRSKKLFRHYTVGSYDSFDTSSDCIIEEKTVVLQKKDNEGFGFVLRGAKADTPIEEFTPTPAFPALQYLESVDEGGVAWQAGLRTGDFLIEVNNENVVKVGHRQVVNMIRQGGNHLVLKVVTVTRNLDPDD
chain 2: ADSIEIYIPEAQTRL

Variants of: B1
Assay: ITC
Conditions: with synthetic peptide of the complete PDZ ligand of GKAP (last 15 amino acids of GKAP/SAPAP1); parent: 1

ratio to parent	Variant
1.3	chain 1 N171S
2.6	chain 1 V198F
2.8	chain 1 S91Y

Reference: publication PMC11371640, “Structural deficits in key domains of Shank2 lead to alterations in postsynaptic nanoclusters and to a neurodevelopmental disorder in humans” (Molecular Psychiatry, 2022)
